Laboratory results from publication PMC10750099, “Mapping immunological and host receptor binding determinants of SARS-CoV spike protein utilizing the Qubevirus platform” (The Journal of Biological Chemistry, 2023).

Target: T1, recombinant human angiotensin-converting enzyme 2 (human, UniProt Q9BYF1 18-740)
T1 construct: also called rhACE2; hACE2
Assay: ELISA
Conditions: both partners purified

T1 sequence (Q9BYF1 18-740): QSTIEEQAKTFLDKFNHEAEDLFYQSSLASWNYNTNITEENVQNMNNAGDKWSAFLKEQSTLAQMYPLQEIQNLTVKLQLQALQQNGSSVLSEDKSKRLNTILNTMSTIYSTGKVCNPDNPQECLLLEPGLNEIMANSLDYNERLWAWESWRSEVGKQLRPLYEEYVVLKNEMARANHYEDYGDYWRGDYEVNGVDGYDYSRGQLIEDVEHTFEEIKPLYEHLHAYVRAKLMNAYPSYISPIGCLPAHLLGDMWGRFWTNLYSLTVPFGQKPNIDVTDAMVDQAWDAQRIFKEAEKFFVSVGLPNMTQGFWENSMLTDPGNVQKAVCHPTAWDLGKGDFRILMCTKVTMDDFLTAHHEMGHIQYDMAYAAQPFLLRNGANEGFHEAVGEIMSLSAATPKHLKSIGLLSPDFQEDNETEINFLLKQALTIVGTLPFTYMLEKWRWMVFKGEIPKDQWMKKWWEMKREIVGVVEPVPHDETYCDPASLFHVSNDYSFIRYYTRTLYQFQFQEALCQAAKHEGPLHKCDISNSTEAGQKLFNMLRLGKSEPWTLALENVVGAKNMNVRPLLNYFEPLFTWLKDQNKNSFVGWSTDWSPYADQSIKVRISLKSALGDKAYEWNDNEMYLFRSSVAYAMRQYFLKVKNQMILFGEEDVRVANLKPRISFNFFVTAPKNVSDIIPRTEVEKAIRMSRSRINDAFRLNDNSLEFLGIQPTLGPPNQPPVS

B1: recombinant Qβ phage displaying the rhACE2-binding motif S437-492 of SARS-CoV spike fragment F6 on A1 (domain or fragment)
chain: NYKYRYLRHGKLRPFERDISNVPFSPDGKPCTPPALNCYWPLNDYGFYTTTGIGYQ
notes: also called GF6 motif (S437-492)
B1: binds.
